This note sets out measurements from the DeepSol protein solubility set.

The series in a line: soluble on expression in E. coli; label from the status in PepcDB or PDB records.
Take “MIRVMLSQLSSVLNARLIGEDRAVSAVSTDSRAIPAEALFVALVGERFDAHDFASQAVTGGAVALLVERELDAECSQLVVADTKQALGQLGSWVHAQCQTPTVAITGSCGKTTVKEMVASILSQKGQVLYTQGNFNNDIGVPLTLLRSTTEDDYAVIELGANHVGEIAYTTALVKPDVALVNNVAAAHLEGFGSMDGVKRAKGEIYQGLQAGAVAIVNLDSNGGDYWKAVLADKTVKTFSATDHNADFYPRDVRLNALGIASFTLVTPVGEVGVELGIMGQHNVANALAAAALSLEMGASLAEIGQGLAHLSKVKGRVDMAQLRDDITLIDDSYNASVPAMKAAVELLGSFSAVRWLILGNMAELGDESLALHQQVGEHAAPFGFEFVLTYGKDAKVISDLCQGHHFATHQDMMTFIEQHIEQQQGRTQVLLVKGANSAGMSKIAAALKEKFA”: the “soluble on expression in E. coli” value is listed as “not soluble”.

Consider “GPGSMNPSAAAYIPQQSDAKGDPKSSSAAAVAKPPSTQPATKLSAAAEPFVPGGPKQMSATSTHVDPKATTEDEKTTAPLLMECPASSLPDSAAAAGAAKKEADENDDSQLDWLPEAQPTDWSESKLPKLFGCHNTAAKATSSAIPLHASWDLYADDHQGSSNMASNSSPTSTMSFEPIFVSNVGDVESFWRLWRYLPAPSALPTVYTYSWFRKDIKPEWEHPRNKKGGTISIVVFDRDRSGLSDKQVLDDVFMAMLVGAVGESFHECSTTLNGIMLKVRSNKPVTLQLWTAHSEVGKLKAFANSVRDTLTKIMGAKTLQKLEYYSHHQKQAATNSLAARMKGKTKISPDHTF”, for which the “soluble on expression in E. coli” value is “soluble”.

Regarding “MKYDLIIIGSGSVGAAAGYYATRAGLNVLMTDAHMPPHQHGSHHGDTRLIRHAYGEGEKYVPLVLRAQMLWDELSRHNEDDPIFVRSGVINLGPADSTFLANVAHSAEQWQLNVEKLDAQGIMARWPEIRVPDNYIGLFETDSGFLRSELAIKTWIQLAKEAGCAQLFNCPVTAIRHDDDGVTIETADGEYQAKKAIVCAGTWVKDLLPELPVQPVRKVFAWYQADGRYSVKNKFPAFTGELPNGDQYYGFPAENDALKIGKHNGGQVIHSADERVPFAEVVSDGSEAFPFLRNVLPGIGCCLYGAACTYDNSPDEDFIIDTLPGHDNTLLITGLSGHGFKFASVLGEIAADFAQDKKSDFDLTPFRLSRFQ”, the “soluble on expression in E. coli” value is recorded as “soluble”.

As to “MNPLVIKLGGVLLDSEEALERLFTALVTYREKHERPLVIMHGGGCLVDELMKRLALPVVKKNGLRVTPADQIDIITGALAGTANKTLLAWAVKHQINAVGLCLADGNTVTVTLLDAELGHVGKAQPGSAALVQTLLAAGYMPIISSIGITVEGQLMNVNADQAATALAATLGADLILLSDVSGILDGKGQRIAEMTAQKAEQLIAQGIITDGMVVKVNAALDAARSLGRPVDIASWRHSEQLPALFNGVPIGTRISV”, the “soluble on expression in E. coli” value is reported as “not soluble”.

In the case of “NNAKEALELCDKRDWDLAELSYRYELQFHTKEEICAYCLEIWEVMQEVYYNGTHPNEDYLPGKLHLKRRAKGLKERVAMTADPMGIIDFISLYAIAIAEENASGAKVVTAPTNGACAVIPAVMLYLKNHTIGFSDEKVIEFLLTAMLIGSFYKKNASISGAEAGCQAEIGSASSMAAAAMATVLGANAFKACNAAEMAMEHHLGLTCDPVAGLVQIPCIERNAFGAIKAISAARMAMTRKSTPMVSLDEVIETMYETGKDMNYKYKETSLGGLATN”, the “soluble on expression in E. coli” value is “not soluble”.

As to “MNKSRVVVGMSGGVDSSVAALLLKQQGYDVTGLFMKNWEEDDTDEYCSSRQDFLDAASVADILDIPLEVVNFSTEYRERVFNLFLKEYQAGRTPNPDVLCNSEIKFRAFLDHALNLGADWIATGHYAQVHETDGLFQLLKGEDGNKDQSYFLYRLNQQQLSHTIFPIGHLYKREVRKIAREHRLPNSTKKDSTGICFIGERPFREFLNRYLPANPGEIHTLDDQVVGEHLGVMYYTIGQRQGLGIGGTRQGSEQPWFVSGKDIKKNVLYVVQGHDHPALLRSSLTAADLSWISGTPPHQNWVYAAKIRYRQTDAPCAITHFEHDSCQIGFAAPQWGITPGQSVVVYESKVCLGGGVIIGSNDLEHHHHHH”, the “soluble on expression in E. coli” value is on record as “not soluble”.

Regarding “MLSVRVAIVGGGLAGLYAAALLEARGVTDYVLLEARETFGGRIMSVPVAAEPDAQRDAAERFDLGATWFWPAMQPELLRVVTAFGVEAFEQYETGAMLVERARDQPAMRIDAGASMSGAWRMAGGMGALTDAISRRLDAARLRAGWRVQRLRKVDEGVDVEAEDGVGRARCWRAAQVLLAMPPRLAVRTVAFAPALPDVLALPWAACQTWMAPHAKYLAVYDMPFWREQGLSGGARSAAGPLAEIHDASGQQGGAALFGFLGVPAAARGRMAQADLRAACRAQLVRLFGERARWPRAEFLKDWADDVCTAVDADRCAQGSHAELPPALADAGAWKDRLIGIASEWSPAFGGYAAGAVDAARRGVEALLGSPDAGVPARRHQGRLWEAWRLEHHHHHH”, the “soluble on expression in E. coli” value is “soluble”.

Consider “MGSDKIHHHHHHMRKIPPLRALQVFEAAARLQHFSRAAQELCITQSAVSHQVRLLEEHFALPLFRREGRSLRLTDKGEQLFQETARIFNELGELNLRLLGEKPEALRLAVYSSFAVKWLIPRLSGFRRLHPGIQVRLDMITEDPVLSHSSADMFITGQQDQKGYWQQLLHAERLIPVCSPELISSSDKLDLDWLSTQQLLTVDEGPLGLDWQRWFEHHRVAQPEEEQQQLFSHVLMAIEAAIAGQGVALASDFMVLDDIAKQRLVALPFAGIDTGFEFNFLCKQRRLQEPAIAAFVHWLTQQH”, for which the “soluble on expression in E. coli” value was “not soluble”.

Take “MGSDKIHHHHHHMYRSRNRPKRGGENEVKGPNSALTQFLREEGISAENIKQKWYQRQSKKQEDATDEKKGKAEDDSFTAEISRVVEDEEIDEIGTGSGTETERAQVSYDARMKLVPADSDEEEYETSHISDTPVSLSSANDRESLTKKRQNTAKIIQNRRRKRKRAADLLDRRVNKVSSLQSLCITKISENISKWQKEADESSKLVFNKLRDVLGGVSTANLNNLAKALSKNRALNDHTLQLFLKTDLKRLTFSDCSKISFDGYKTLAIFSPHLTELSLQMCGQLNHESLLYIAEKLPNLKSLNLDGPFLINEDTWEKFFVIMKGRLEEFHISNTHRFTDKSLSNLLINCGSTLVSLGLSRLDSISNYALLPQYLVNDEFHSLCIEYPFNEEDVNDEIIINLLGQIGRTLRKLVLNGCIDLTDSMIINGLTAFIPEKCPLEVLSLEESDQITTDSLSYFFSKVELNNLIECSFRRCLQLGDMAIIELLLNGARDSLRSLNLNSLKELTKEAFVALACPNLTYLDLGFVRCVDDSVIQMLGEQNPNLTVIDVFGDNLVTEKATMRPGLTLIGRQSDSI”: the “soluble on expression in E. coli” value was “not soluble”.

For “MSVLEKIDSPADLKKVSNQELEELASEIRTAVLHKVSNIGGHVGPNLGVTELTIALHKVFNSPIDKFIWDVSHQTYPHKILTGRKNGFTDGHFHDITPYTSQRESEHDFFTVGHTSTSIANALGYAKARDLTNDKGNIVAVIGDGSLSGGLAMEALNNAGDFKGNLIILVNDNQMSIAENHGGLYRNLAELRATNGQAENNFFKTFGLDYKYLENGNDIESLIHLFEEVKDIDHPIVLHIHTEKGRGYQPALENKEAFHWHMPFDLETGQSKVIDSGKSYSSVMLDYMDKKVSEGLPLVAINAAIPGIFGLKQFAAKYPDRYIDAGIAEQFTITFGGAMAAAGARPIIFHNSTFVQRAYDQFWHDLAINEEPAIVIVKGGVISGSDETHQGSSAMTWISNIPNIKYLAPTSEEEFISILDWALEQHEEPVVIQMPEHGLESRPTVLTDYSTPSYQMTKSGEKVALLALGGLYSHGEKVAKVLAENGINATLINPLFINDLDQAFLENLVENHQVIATIEDGILDGGFGQKVASFLGKYDVKVLNFGAKREFNDSVPVTELYNRYHLTPELMVADILSLLKLEHHHHHH”, the “soluble on expression in E. coli” value was “not soluble”.

As to “MASECVDENSKPWMRVTVSCALLPEVLKQGAEAGGAVKLTGNPSEQSSEDGSHHCSSNFQNSPVTSDLSVLDASPCGLPAEKRKPPHRETSISSNASQSEREIAPTATRRLSPKPETATLSPSESSSLTAATLSNCSSRVQSSSDEKIGNCPSTSACSVSQTTASSEAPSWLSSGASTAQVLSERRGSIEEQPAPETSAAAVRVSRSSSDSENLFASCSASLRNLEPDDISDPENEAAAPACAETGASRAQDAAAVRADAENLGEGESHMETASTRAESLAKDAISSKVSRRGSAHTSSDASGQCQDALPSVGEGKPGEMNGREEDGEAEKPEASAESLQGSDGQANESEAPKPGGGRVDAKMRAKFKREFVRSWVDINRAPSWPPIKKNKYLSSDWKRVDLRTAAGEIRVETKKHRLFLNDLCFLFDGVYTQKSTLGRKAGLGLFCERPEGLHKGQIITEFVGWLVDRDLAESYRKQRTASHIVAVQKGFLYIDGAKEPAYGMGGGSFANDGSEFLGGPGNNAQFYHWFDDELGRTRVFLRATADIKNGEEIFVPYHKTYWVDNFEEQAENCPDAFKQRKLEQLRRRYKNPEFVHIPHREEVAMREREEAERRKRDKEESEKKKAAAKQPRCPVKRPCSAYLLFSVARRKELLKACGILSKGDDEPASQQVSESPEVPREGQRKRRASSASQAAAPVPAAANKRRKAEKDEPSSPEETKRGQVVAAAGLKRGAARPACVGDETAQKLAGWLAKDGAANVRTLCAELTREVAREWGNMRPEEKKPWEQLAEKEKIRYAKAVRTWREKLKKKKSGRETATRKRKVPCSRKGHGTEKGEKAGKVKPQADTSPREAAPEGTETRDHEDVQAGAKDRAATQKER”, the “soluble on expression in E. coli” value is given as “soluble”.

For “MSLQVTDVEIAQYYQDNKAQFMTQHLAHIQFANEQDAKVAYEELQKGANFADVAKAKSLDKISGENGGDLGWVNENELPKAFEDAAAALQVGQYSQPINVDGNYHIVLVQERKAQSLENVKAQIADLVRKSLMESRYFSLEKQASDKAFEDSKSLNTAAQAAGVKVQESDYFSRQNVPAGLNFPNVIYTIFESDTTNVGMNSEPINVGDYHTIIVRVLDRKAEGVKSLEEAKIDIETFLKRQKAENALNGKAQQAVKKLSENPESKVDGINFSSEQTFTLSENKDPILTNGIFSIAKPESSKALYQVVHNSNGDVVVVALNKVEQGSLSEKELSQFAMQLLRSHQSELQVQLIQGLRERAKIEVNDSFINQDDEAQEGHHHHHH”, the “soluble on expression in E. coli” value is recorded as “soluble”.

Consider “MPVSPEREQALSEFVAAVQAREDVQSELNEITTLDQLKTIVDSIEPALTGAALIPFEQATSPPKITVDSGVLDKNIPWRLLRCPGGPLVLQMICTRVNFALWIESC”, for which the “soluble on expression in E. coli” value is “not soluble”.

On to “GPGSMITDSHIMRLVTDGRMEMFPAVPPPSADGNGVVMLSCYQRGPLLPPTPPRPSSGRNDRIMWDSWQTRPVPQYRGNPETKTQRGVADWQHVPFACPFLRPVVTDVDRAVRGGNATRWLPTPFVGPQVFTVKDKSAGGVLVEQKEAPSSSTS”, for which the “soluble on expression in E. coli” value is given as “not soluble”.

Consider “MVKIAIITYSTYGHIDVLAQAVKKGVEAAGGKADIYRVEETLPDEVLTKMNAPQKPEDIPVATEKTLLEYDAFLFGVPTRFGNLPAQWSAFWDKTGGLWAKGSLNGKAAGIFVSTSSYGGGQESTVKACLSYLAHHGIIFLPLGYKNSFAELASIEEVHGGSPWGAGTLAGPDGSRTASPLELRIAEIQGKTFYETAKKLFPAKEAKPSTEKKTTTSDAAKRQTKPAAATTAEKKEDKGLLSCCTVM”, for which the “soluble on expression in E. coli” value was “soluble”.

Consider “MGSDKIHHHHHHMDNAIVTSPSGSSPAEAQAFLDAHPEIEAFDIVLTDANGVGRGKIVRRHELKSIFEGGRHMPISILGLDITGEDVHETGLIWTTGDGDLRAWPIPGTLVPLYGTNPPRGQVLMAMYHLDGQPMSSDPRLALARQVDILAAKGLYPAGAFELEFFLLANERDADGKVQPARAVLDGRVSGKTEVYSVDHLHGMEPLFSDIYAAAKAQGIPAETVISEYAPGQYELTLNYRKDVMRAADDLVMLKRLVRAQARRHGVTACFMAKPIEKYAGSGMHFHVSLQDKAGRNVFAEAGGESWSLPLLQGLGGLIQTMAESMLVFAPHANSWRRFVSQSYAPVAPTWGVNNRSVALRVPAGDAKNRRIEHRPSGVDANPYLIAATVLAGIVKGLDEGLDPGPETTGNGYEAAVTRTTMPADWRAAIEAAKASSFLKGALGEDLHRTFVAIKQSEYLRVARTVSELDYHLYLHEV”, for which the “soluble on expression in E. coli” value is “not soluble”.
